# Test results taken from patent US10538585 (dated 2020).
# Read-outs that look alike come from different tables or passages of the source.
# T1: human ANG2-RBD-Fc (human, UniProt O15123)
# T1 chain: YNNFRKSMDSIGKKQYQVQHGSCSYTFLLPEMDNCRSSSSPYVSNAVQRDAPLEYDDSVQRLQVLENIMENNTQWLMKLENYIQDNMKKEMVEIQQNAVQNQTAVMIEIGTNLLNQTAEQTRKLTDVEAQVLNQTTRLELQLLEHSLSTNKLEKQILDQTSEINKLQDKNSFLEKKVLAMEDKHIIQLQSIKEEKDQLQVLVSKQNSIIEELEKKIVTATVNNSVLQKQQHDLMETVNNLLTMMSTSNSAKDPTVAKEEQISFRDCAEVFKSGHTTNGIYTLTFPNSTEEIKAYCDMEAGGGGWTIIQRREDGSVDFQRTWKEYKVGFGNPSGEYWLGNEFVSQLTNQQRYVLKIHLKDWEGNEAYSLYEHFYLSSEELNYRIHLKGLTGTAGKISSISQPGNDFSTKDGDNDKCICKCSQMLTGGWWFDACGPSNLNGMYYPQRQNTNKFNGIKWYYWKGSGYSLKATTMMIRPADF
# T2: human ANG2 (human, UniProt O15123)
# T2 chain: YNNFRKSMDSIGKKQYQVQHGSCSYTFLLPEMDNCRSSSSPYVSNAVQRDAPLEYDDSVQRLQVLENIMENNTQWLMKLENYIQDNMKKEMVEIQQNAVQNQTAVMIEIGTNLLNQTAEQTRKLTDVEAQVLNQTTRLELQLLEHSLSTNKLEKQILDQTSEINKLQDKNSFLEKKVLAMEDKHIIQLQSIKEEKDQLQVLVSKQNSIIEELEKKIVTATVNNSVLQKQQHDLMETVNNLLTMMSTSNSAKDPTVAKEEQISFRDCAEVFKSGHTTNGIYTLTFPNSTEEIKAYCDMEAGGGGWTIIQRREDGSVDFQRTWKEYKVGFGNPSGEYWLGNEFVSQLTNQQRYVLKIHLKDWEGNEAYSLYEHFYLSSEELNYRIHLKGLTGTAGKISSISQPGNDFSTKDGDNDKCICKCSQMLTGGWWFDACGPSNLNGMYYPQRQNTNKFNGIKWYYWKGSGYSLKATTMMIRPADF
# B1: 0033 (antibody, V domains shown)
# VH: not shown
# VL: SYVLTQPPSVSVAPGQTARITCGGNNIGSKSVHWYQQKPGQAPVLVVYDDSDRPSGIPERFSGSNSGNTATLTISRVEAGDEADYYCQVWDSSSDHWVFGGGTKLTVLS
# B2: 0101 (antibody, V domains shown)
# VH: not shown
# VL: SYVLTQPPSVSVAPGQTARITCGGNNIGSKSVHWYQQKPGQAPVLVVYDTSDRPSGIPERFSGSNSGNTATLTISRVEAGDEADYYCQVWDSSSDHWVFGGGTKLTVLS
# B3: 0027 (antibody, V domains shown)
# VH: not shown
# VL: SYVLTQPPSVSVAPGQTARITCGGNNIGSKSVHWYQQKPGQAPVLVVYDDSDRPSGIPERFSGSNSGNTATLTISRVEAGDEADYYCQVWDSSSDHWVFGGGTKLTVLS
# B4: 0041 (antibody, V domains shown)
# VH: not shown
# VL: SYVLTQPPSVSVAPGQTARITCGGNNIGSKSVHWYQQKPGQAPVLVVYDDSDRPSGIPERFSGSNSGNTATLTISRVEAGDEADYYCQVWDSSSDHWVFGGGTKLTVLS
# B5: 0155 (antibody, V domains shown)
# VH: not shown
# VL: QPGLTQPPSVSVAPGQTARITCGGNNIGSKSVHWYQQKPGQAPVLVVYDTSDRPSGIPERFSGSNSGNTATLTISRVEAGDEADYYCQVWDSSSDHYVFGTGTKVTVLS
# B6: 0028 (antibody, V domains shown)
# VH: not shown
# VL: SYVLTQPPSVSVAPGQTARITCGGNNIGSKSVHWYQQKPGQAPVLVVYDDSDRPSGIPERFSGSNSGNTATLTISRVEAGDEADYYCQVWDSSSDHWVFGGGTKLTVLS
# B7: 0026 (antibody, V domains shown)
# VH: not shown
# VL: SYVLTQPPSVSVAPGQTARITCGGNNIGSKSVHWYQQKPGQAPVLVVYDDSDRPSGIPERFSGSNSGNTATLTISRVEAGDEADYYCQVWDSSSDHWVFGGGTKLTVLS
# B8: 0060 (antibody, V domains shown)
# VH: not shown
# VL: SYVLTQPPSVSVAPGQTARITCGGNNIGSKSVHWYQQKPGQAPVLVVYDTSDRPSGIPERFSGSNSGNTATLTISRVEAGDEADYYCQVWDSSSDHWVFGGGTKLTVLS
# B9: 0061 (antibody, V domains shown)
# VH: not shown
# VL: SYVLTQPPSVSVAPGQTARITCGGNNIGSKSVHWYQQKPGQAPVLVVYDTSDRPSGIPERFSGSNSGNTATLTISRVEAGDEADYYCQVWDSSSDHWVFGGGTKLTVLS
# B10: 0058 (antibody, V domains shown)
# VH: not shown
# VL: SYVLTQPPSVSVAPGQTARITCGGNNIGSKSVHWYQQKPGQAPVLVVYDDSDRPSGIPERFSGSNSGNTATLTISRVEAGDEADYYCQVWDSSSDHWVFGGGTKLTVLS
# B11: 0017 (antibody, V domains shown)
# VH: not shown
# VL: SYVLTQPPSVSVAPGQTARITCGGNNIGSKSVHWYQQKPGQAPVLVVYDDSDRPSGIPERFSGSNSGNTATLTISRVEAGDEADYYCQVWDSSSDHWVFGGGTKLTVLS
# B12: 0040 (antibody, V domains shown)
# VH: not shown
# VL: SYVLTQPPSVSVAPGQTARITCGGNNIGSKSVHWYQQKPGQAPVLVVYDDSDRPSGIPERFSGSNSGNTATLTISRVEAGDEADYYCQVWDSSSDHWVFGGGTKLTVLS
# B13: 0025 (antibody, V domains shown)
# VH: not shown
# VL: SYVLTQPPSVSVAPGQTARITCGGNNIGSKSVHWYQQKPGQAPVLVVYDDSDRPSGIPERFSGSNSGNTATLTISRVEAGDEADYYCQVWDSSSDHWVFGGGTKLTVLS
# B14: 0156 (antibody, V domains shown)
# VH: not shown
# VL: QPGLTQPPSVSVAPGQTARITCGGNNIGSKSVHWYQQKPGQAPVLVVYDTSDRPSGIPERFSGSNSGNTATLTISRVEAGDEADYYCQVWDSSSDHYVFGTGTKVTVLS
# B15: 0075 (antibody, V domains shown)
# VH: not shown
# VL: SYVLTQPPSVSVAPGQTARITCGGNNIGSKSVHWYQQKPGQAPVLVVYDTSDRPSGIPERFSGSNSGNTATLTISRVEAGDEADYYCQVWDSSSDHWVFGGGTKLTVLS
# B16: 0163 ANG2 arm (antibody, V domains shown)
# VH: not shown
# VL: QPGLTQPPSVSVAPGQTARITCGGNNIGSKSVHWYQQKPGQAPVLVVYDTSDRPSGIPERFSGSNSGNTATLTISRVEAGDEADYYCQVWDSSSDHYVFGTGTKVTVLS
# B17: 0057 (antibody, V domains shown)
# VH: not shown
# VL: SYVLTQPPSVSVAPGQTARITCGGNNIGSKSVHWYQQKPGQAPVLVVYDDSDRPSGIPERFSGSNSGNTATLTISRVEAGDEADYYCQVWDSSSDHWVFGGGTKLTVLS
# B18: 0042 (antibody, V domains shown)
# VH: not shown
# VL: SYVLTQPPSVSVAPGQTARITCGGNNIGSKSVHWYQQKPGQAPVLVVYDDSDRPSGIPERFSGSNSGNTATLTISRVEAGDEADYYCQVWDSSSDHWVFGGGTKLTVLS
# B19: 0074 (antibody, V domains shown)
# VH: not shown
# VL: SYVLTQPPSVSVAPGQTARITCGGNNIGSKSVHWYQQKPGQAPVLVVYDDSDRPSGIPERFSGSNSGNTATLTISRVEAGDEADYYCQVWDSSSDHWVFGGGTKLTVLS
# B20: 0099 (antibody, V domains shown)
# VH: not shown
# VL: SYVLTQPPSVSVAPGQTARITCGGNNIGSKSVHWYQQKPGQAPVLVVYDDSDRPSGIPERFSGSNSGNTATLTISRVEAGDEADYYCQVWDSSSDHWVFGGGTKLTVLS
# B21: 0166 ANG2 arm (antibody, V domains shown)
# VH: not shown
# VL: SYVLTQPPSVSVAPGQTARITCGGNNIGSKSVHWYQQKPGQAPVLVVYDTSDRPSGIPERFSGSNSGNTATLTISRVEAGDEADYYCQVWDSSSDHWVFGGGTKLTVLS
# B22: 0164 ANG2 arm (antibody, V domains shown)
# VH: not shown
# VL: QPGLTQPPSVSVAPGQTARITCGGNNIGSKSVHWYQQKPGQAPVLVVYDTSDRPSGIPERFSGSNSGNTATLTISRVEAGDEADYYCQVWDSSSDHYVFGTGTKVTVLS
# B23: 0090 (antibody)
# chain 1: not shown
# chain 2: SYVLTQPPSVSVAPGQTARITCGGNNIGSKSVHWYQQKPGQAPVLVVYDTSDRPSGIPERFSGSNSGNTATLTISRVEAGDEADYYCQVWDSSSDHWVFGGGTKLTVLSSASTKGPSVFPLAPSSKSTSGGTAALGCLVKDYFPEPVTVSWNSGALTSGVHTFPAVLQSSGLYSLSSVVTVPSSSLGTQTYICNVNHKPSNTKVDKKVEPKSC
# B24: 0100 (antibody)
# chain 1: not shown
# chain 2: SYVLTQPPSVSVAPGQTARITCGGNNIGSKSVHWYQQKPGQAPVLVVYDTSDRPSGIPERFSGSNSGNTATLTISRVEAGDEADYYCQVWDSSSDHWVFGGGTKLTVLSSASTKGPSVFPLAPSSKSTSGGTAALGCLVKDYFPEPVTVSWNSGALTSGVHTFPAVLQSSGLYSLSSVVTVPSSSLGTQTYICNVNHKPSNTKVDKKVEPKSC
# B25: 0165 ANG2 arm (antibody)
# chain 1: not shown
# chain 2: SYVLTQPPSVSVAPGQTARITCGGNNIGSKSVHWYQQKPGQAPVLVVYDTSDRPSGIPERFSGSNSGNTATLTISRVEAGDEADYYCQVWDSSSDHWVFGGGTKLTVLSSASTKGPSVFPLAPSSKSTSGGTAALGCLVKDYFPEPVTVSWNSGALTSGVHTFPAVLQSSGLYSLSSVVTVPSSSLGTQTYICNVNHKPSNTKVDKKVEPKSC
# What was measured:
# [1] = target: T1, human ANG2-RBD-Fc; test: SPR
# [2] = target: T1, human ANG2-RBD-Fc; test: SPR bivalent
# [3] = target: T2, human ANG2; test: competition, Tie2 binding inhibition (pTie2 ELISA)
# [4] = target: T1, human ANG2-RBD-Fc; test: SPR bivalent
# [5] = target: T2, human ANG2; test: competition, Tie2 binding inhibition (pTie2 ELISA)
# [6] = target: T1, human ANG2-RBD-Fc; test: SPR
# [7] = target: T1, human ANG2-RBD-Fc; test: SPR
# [8] = target: T1, human ANG2-RBD-Fc; test: SPR
# [9] = target: T1, human ANG2-RBD-Fc; test: SPR
# [10] = target: T2, human ANG2; test: competition, Tie2 binding inhibition (pTie2 ELISA)
# [11] = target: T1, human ANG2-RBD-Fc; test: SPR
# [12] = target: T1, human ANG2-RBD-Fc; test: SPR
binder,measurement,setting,value
B1,Kd,[1],3 nM
B2,Kd,[2],0.007 nM
same,EC50,[3],3 nM
same,Kd,[4],0.007 nM
B3,Kd,[1],69 nM
B4,EC50,[5],5.4 nM
same,Kd,[6],1 nM
same,Kd,[7],1 nM
B5,Kd,[8],43 nM
B6,Kd,[1],143 nM
B7,Kd,[9],18 nM
B8,Kd,[7],21 nM
B9,Kd,[7],18 nM
B10,Kd,[7],21 nM
B11,Kd,[9],12 nM
B12,Kd,[7],23 nM
B13,Kd,[9],38 nM
B14,Kd,[8],5 nM
B15,EC50,[10],39 nM
same,Kd,[6],14 nM
same,Kd,[11],14 nM
B16,Kd,[12],4 nM
B17,Kd,[7],29 nM
B18,Kd,[7],4 nM
B19,Kd,[11],16 nM
B20,Kd,[2],0.004 nM
same,EC50,[3],3.2 nM
same,Kd,[4],0.004 nM
B21,Kd,[12],49 nM
B22,Kd,[12],39 nM
B23,EC50,[10],7 nM
same,Kd,[6],1 nM
same,Kd,[11],1 nM
B24,Kd,[2],0.008 nM
same,EC50,[3],3.2 nM
same,Kd,[4],0.008 nM
B25,Kd,[12],4 nM
